# Legend:
# HeLa Kyoto [1] = assay: solubility in G1/S (NP-40 vs SDS abundance) (log2 ratio); higher = more soluble; conditions: cell cycle stage: G1/S
# HeLa Kyoto [2] = assay: melting temperature (median over replicates), in situ; higher = more thermally stable
# HeLa Kyoto [3] = assay: solubility change mitosis vs G1/S (difference of NP-40 vs SDS log2 ratios) (log2 ratio difference); higher = more soluble in mitosis
# HeLa Kyoto [4] = assay: thermal stability score vs G1/S (z-score of summed log2 fold changes over temperatures); higher = more thermally stable than in G1/S
# [5] = cell cycle stage: early G1 (4.5 h after nocodazole release)
# 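Wherever melting temperature (median over replicates), in situ is given: HeLa Kyoto cells synchronized by double thymidine or nocodazole block, proteins quantified by TMT10plex mass spectrometry, three independent biological replicates.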
# 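Wherever solubility change mitosis vs G1/S (difference of NP-40 vs SDS log2 ratios) is given: synchronized HeLa Kyoto cells (double thymidine block for G1/S, nocodazole release for mitosis), protein amounts in NP-40 versus SDS lysates quantified by mass spectrometry, three biological replicates.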
# 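Wherever solubility in G1/S (NP-40 vs SDS abundance) is given: HeLa Kyoto cells arrested at G1/S by double thymidine block, proteins quantified by TMT10plex mass spectrometry in mild NP-40 versus SDS extracts, three biological replicates.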
# 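Wherever thermal stability score vs G1/S (z-score of summed log2 fold changes over temperatures) is given: synchronized HeLa Kyoto cells, proteins quantified by TMT10plex mass spectrometry, three biological replicates, mitosis taken 0.5 h after nocodazole release, G1/S directly after double thymidine block.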
Sequence,solubility in G1/S (log2) (HeLa Kyoto [1]),melting temperature (HeLa Kyoto [2]; cell cycle stage: G1/S),melting temperature (HeLa Kyoto [2]; cell cycle stage: mitosis),solubility change mitosis (log2) (HeLa Kyoto [3]),thermal stability score (HeLa Kyoto [4]; [5]),thermal stability score (HeLa Kyoto [4]; cell cycle stage: mitosis)
MIRRVLPHGMGRGLLTRRPGTRRGGFSLDWDGKVSEIKKKIKSILPGRSCDLLQDTSHLPPEHSDVVIVGGGVLGLSVAYWLKKLESRRGAIRVLVVERDHTYSQASTGLSVGGICQQFSLPENIQLSLFSASFLRNINEYLAVVDAPPLDLRFNPSGYLLLASEKDAAAMESNVKVQRQEGAKVSLMSPDQLRNKFPWINTEGVALASYGMEDEGWFDPWCLLQGLRRKVQSLGVLFCQGEVTRFVSSSQRMLTTDDKAVVLKRIHEVHVKMDRSLEYQPVECAIVINAAGAWSAQIAALAGVGEGPPGTLQGTKLPVEPRKRYVYVWHCPQGPGLETPLVADTSGAYFRREGLGSNYLGGRSPTEQEEPDPANLEVDHDFFQDKVWPHLALRVPAFETLKVQSAWAGYYDYNTFDQNGVVGPHPLVVNMYFATGFSGHGLQQAPGIGRAVAEMVLKGRFQTIDLSPFLFTRFYLGEKIQENNII [FOXRED1],-0.0625,51.5 °C,51.6 °C,0.0476,1.19,0.0541
MADSGLLLKRGSCRSTWLRVRKARPQLILSRRPRRRLGSLRWCGRRRLRWRLLQAQASGVDWREGARQVSRAAAARRPNTATPSPIPSPTPASEPESEPELESASSCHRPLLIPPVRPVGPGRALLLLPVEQGFTFSGICRVTCLYGQVQVFGFTISQGQPAQDIFSVYTHSCLSIHALHYSQPEKSKKELKREARNLLKSHLNLDDRRWSMQNFSPQCSIVLLEHLKTATVNFITSYPGSSYIFVQESPTPQIKPEYLALRSVGIRREKKRKGLQLTESTLSALEELVNVSCEEVDGCPVILVCGSQDVGKSTFNRYLINHLLNSLPCVDYLECDLGQTEFTPPGCISLLNITEPVLGPPFTHLRTPQKMVYYGKPSCKNNYENYIDIVKYVFSAYKRESPLIVNTMGWVSDQGLLLLIDLIRLLSPSHVVQFRSDHSKYMPDLTPQYVDDMDGLYTKSKTKMRNRRFRLAAFADALEFADEEKESPVEFTGHKLIGVYTDFAFRITPRNRESHNKILRDLSILSYLSQLQPPMPKPLSPLHSLTPYQVPFNAVALRITHSDVAPTHILYAVNASWVGLCKIQDDVRGYTNGPILLAQTPICDCLGFGICRGIDMEKRLYHILTPVPPEELRTVNCLLVGAIAIPHCVLKCQRGIEGTVPYVTTDYNFKLPGASEKIGAREPEEAHKEKPYRRPKFCRKMK [NOL9],-1.82,–,51.3 °C,0.92,1.99,1.53
MPHSYPALSAEQKKELSDIALRIVAPGKGILAADESVGSMAKRLSQIGVENTEENRRLYRQVLFSADDRVKKCIGGVIFFHETLYQKDDNGVPFVRTIQDKGIVVGIKVDKGVVPLAGTDGETTTQGLDGLSERCAQYKKDGADFAKWRCVLKISERTPSALAILENANVLARYASICQQNGIVPIVEPEILPDGDHDLKRCQYVTEKVLAAVYKALSDHHVYLEGTLLKPNMVTPGHACPIKYTPEEIAMATVTALRRTVPPAVPGVTFLSGGQSEEEASFNLNAINRCPLPRPWALTFSYGRALQASALNAWRGQRDNAGAATEEFIKRAEVNGLAAQGKYEGSGEDGGAAAQSLYIANHAY [ALDOC],0.202,56.9 °C,57 °C,-0.0816,-1.31,-2.38
MKLSLTKVVNGCRLGKIKNLGKTGDHTMDIPGCLLYTKTGSAPHLTHHTLHNIHGVPAMAQLTLSSLAEHHEVLTEYKEGVGKFIGMPESLLYCSLHDPVSPCPAGYVTNKSVSVWSVAGRVEMTVSKFMAIQKALQPDWFQCLSDGEVSCKEATSIKRVRKSVDRSLLFLDNCLRLQEESEVLQKSVIIGVIEGGDVMEERLRSARETAKRPVGGFLLDGFQGNPTTLEARLRLLSSVTAELPEDKPRLISGVSRPDEVLECIERGVDLFESFFPYQVTERGCALTFSFDYQPNPEETLLQQNGTQEEIKCMDQIKKIETTGCNQEITSFEINLKEKKYQEDFNPLVRGCSCYCCKNHTRAYIHHLLVTNELLAGVLLMMHNFEHYFGFFHYIREALKSDKLAQLKELIHRQAS [QTRTD1],0.116,54.6 °C,54.3 °C,-0.121,-0.725,-2.32
MSVVGIDLGFLNCYIAVARSGGIETIANEYSDRCTPACISLGSRTRAIGNAAKSQIVTNVRNTIHGFKKLHGRSFDDPIVQTERIRLPYELQKMPNGSAGVKVRYLEEERPFAIEQVTGMLLAKLKETSENALKKPVADCVISIPSFFTDAERRSVMAAAQVAGLNCLRLMNETTAVALAYGIYKQDLPPLDEKPRNVVFIDMGHSAYQVLVCAFNKGKLKVLATTFDPYLGGRNFDEALVDYFCDEFKTKYKINVKENSRALLRLYQECEKLKKLMSANASDLPLNIECFMNDLDVSSKMNRAQFEQLCASLLARVEPPLKAVMEQANLQREDISSIEIVGGATRIPAVKEQITKFFLKDISTTLNADEAVARGCALQCAILSPAFKVREFSITDLVPYSITLRWKTSFEDGSGECEVFCKNHPAPFSKVITFHKKEPFELEAFYTNLHEVPYPDARIGSFTIQNVFPQSDGDSSKVKVKVRVNIHGIFSVASASVIEKQNLEGDHSDAPMETETSFKNENKDNMDKMQVDQEEGHQKCHAEHTPEEEIDHTGAKTKSAVSDKQDRLNQTLKKGKVKSIDLPIQSSLCRQLGQDLLNSYIENEGKMIMQDKLEKERNDAKNAVEEYVYDFRDRLGTVYEKFITPEDLSKLSAVLEDTENWLYEDGEDQPKQVYVDKLQELKKYGQPIQMKYMEHEERPKALNDLGKKIQLVMKVIEAYRNKDERYDHLDPTEMEKVEKCISDAMSWLNSKMNAQNKLSLTQDPVVKVSEIVAKSKELDNFCNPIIYKPKPKAEVPEDKPKANSEHNGPMDGQSGTETKSDSTKDSSQHTKSSGEMEVD [HSPA4L],0.145,49.8 °C,49.9 °C,-0.0487,1.4,1.87
MASGTTTTAVKIGIIGGTGLDDPEILEGRTEKYVDTPFGKPSDALILGKIKNVDCVLLARHGRQHTIMPSKVNYQANIWALKEEGCTHVIVTTACGSLREEIQPGDIVIIDQFIDRTTMRPQSFYDGSHSCARGVCHIPMAEPFCPKTREVLIETAKKLGLRCHSKGTMVTIEGPRFSSRAESFMFRTWGADVINMTTVPEVVLAKEAGICYASIAMATDYDCWKEHEEAVSVDRVLKTLKENANKAKSLLLTTIPQIGSTEWSETLHNLKNMAQFSVLLPRH [MTAP],0.254,60 °C,60.5 °C,-0.0344,-1.8,-2.68
MVAVLGGRGVLRLRLLLSALKPGIHVPRAGPAAAFGTSVTSAKVAVNGVQLHYQQTGEGDHAVLLLPGMLGSGETDFGPQLKNLNKKLFTVVAWDPRGYGHSRPPDRDFPADFFERDAKDAVDLMKALKFKKVSLLGWSDGGITALIAAAKYPSYIHKMVIWGANAYVTDEDSMIYEGIRDVSKWSERTRKPLEALYGYDYFARTCEKWVDGIRQFKHLPDGNICRHLLPRVQCPALIVHGEKDPLVPRFHADFIHKHVKGSRLHLMPEGKHNLHLRFADEFNKLAEDFLQ [BPHL],0.0569,52.7 °C,52.4 °C,-0.00389,0.683,0.206
MEPEEERIRYSQRLRGTMRRRYEDDGISDDEIEGKRTFDLEEKLHTNKYNANFVTFMEGKDFNVEYIQRGGLRDPLIFKNSDGLGIKMPDPDFTVNDVKMCVGSRRMVDVMDVNTQKGIEMTMAQWTRYYETPEEEREKLYNVISLEFSHTRLENMVQRPSTVDFIDWVDNMWPRHLKESQTESTNAILEMQYPKVQKYCLMSVRGCYTDFHVDFGGTSVWYHIHQGGKVFWLIPPTAHNLELYENWLLSGKQGDIFLGDRVSDCQRIELKQGYTFVIPSGWIHAVYTPTDTLVFGGNFLHSFNIPMQLKIYNIEDRTRVPNKFRYPFYYEMCWYVLERYVYCITNRSHLTKEFQKESLSMDLELNGLESGNGDEEAVDREPRRLSSRRSVLTSPVANGVNLDYDGLGKTCRSLPSLKKTLAGDSSSDCSRGSHNGQVWDPQCAPRKDRQVHLTHFELEGLRCLVDKLESLPLHKKCVPTGIEDEDALIADVKILLEELANSDPKLALTGVPIVQWPKRDKLKFPTRPKVRVPTIPITKPHTMKPAPRLTPVRPAAASPIVSGARRRRVRCRKCKACVQGECGVCHYCRDMKKFGGPGRMKQSCVLRQCLAPRLPHSVTCSLCGEVDQNEETQDFEKKLMECCICNEIVHPGCLQMDGEGLLNEELPNCWECPKCYQEDSSEKAQKRKMEESDEEAVQAKVLRPLRSCDEPLTPPPHSPTSMLQLIHDPVSPRGMVTRSSPGAGPSDHHSASRDERFKRRQLLRLQATERTMVREKENNPSGKKELSEVEKAKIRGSYLTVTLQRPTKELHGTSIVPKLQAITASSANLRHSPRVLVQHCPARTPQRGDEEGLGGEEEEEEEEEEEDDSAEEGGAARLNGRGSWAQDGDESWMQREVWMSVFRYLSRRELCECMRVCKTWYKWCCDKRLWTKIDLSRCKAIVPQALSGIIKRQPVSLDLSWTNISKKQLTWLVNRLPGLKDLLLAGCSWSAVSALSTSSCPLLRTLDLRWAVGIKDPQIRDLLTPPADKPGQDNRSKLRNMTDFRLAGLDITDATLRLIIRHMPLLSRLDLSHCSHLTDQSSNLLTAVGSSTRYSLTELNMAGCNKLTDQTLIYLRRIANVTLIDLRGCKQITRKACEHFISDLSINSLYCLSDEKLIQKIS [KDM2A],-1.07,52.3 °C,50.5 °C,0.642,0.0512,-0.325
MDELAGGGGGGPGMAAPPRQQQGPGGNLGLSPGGNGAAGGGGPPASEGAGPAAGPELSRPQQYTIPGILHYIQHEWARFEMERAHWEVERAELQARIAFLQGERKGQENLKKDLVRRIKMLEYALKQERAKYHKLKYGTELNQGDLKMPTFESEETKDTEAPTAPQNSQLTWKQGRQLLRQYLQEVGYTDTILDVRSQRVRSLLGLSNSEPNGSVETKNLEQILNGGESPKQKGQEIKRSSGDVLETFNFLENADDSDEDEENDMIEGIPEGKDKHRMNKHKIGNEGLAADLTDDPDTEEALKEFDFLVTAEDGEGAGEARSSGDGTEWDKDDLSPTAEVWDVDQGLISKLKEQYKKERKGKKGVKRANRTKLYDMIADLGDDELPHIPSGIINQSRSASTRMTDHEGARAEEAEPITFPSGGGKSFIMGSDDVLLSVLGLGDLADLTVTNDADYSYDLPANKDAFRKTWNPKYTLRSHFDGVRALAFHPVEPVLVTASEDHTLKLWNLQKTVPAKKSASLDVEPIYTFRAHIGPVLSLAISSNGEQCFSGGIDATIQWWNMPSPSVDPYDTYEPNVLAGTLVGHTDAVWGLAYSGIKNQLLSCSADGTVRLWNPQEKLPCICTYNGDKKHGIPTSVDFIGCDPAHMVTSFNTGSAVIYDLETSQSLVILSSQVDSGLQSNNHINRVVSHPTLPVTITAHEDRHIKFFDNKTGKMIHSMVAHLDAVTSLAVDPNGIYLMSGSHDCSIRLWNLDSKTCVQEITAHRKKLDESIYDVAFHSSKAYIASAGADALAKVFV [STRN3],-0.0799,52.1 °C,52.4 °C,-0.0757,-0.00707,-0.722
MSKGTSSDTSLGRVSRAAFPSPTAAEMAEISRIQYEMEYTEGISQRMRVPEKLKVAPPNADLEQGFQEGVPNASVIMQVPERIVVAGNNEDVSFSRPADLDLIQSTPFKPLALKTPPRVLTLSERPLDFLDLERPPTTPQNEEIRAVGRLKRERSMSENAVRQNGQLVRNDSLWHRSDSAPRNKISRFQAPISAPEYTVTPSPQQARVCPPHMLPEDGANLSSARGILSLIQSSTRRAYQQILDVLDENRRPVLRGGSAAATSNPHHDNVRYGISNIDTTIEGTSDDLTVVDAASLRRQIIKLNRRLQLLEEENKERAKREMVMYSITVAFWLLNSWLWFRR [MFF],0.532,51.6 °C,52.6 °C,-0.00278,0.544,1.39
